# Experimental data from patent US10801027B2, “Inhibitors of SRSF1 to treat neurodegenerative disorders” (University of Sheffield, priority 2016, dated 2020).
# T1: NXF1 (Mus musculus, UniProt Q99JX7)
# T1 construct: endogenous in cells; host or cells: Neuro-2a (N2A)
# T1 sequence (Q99JX7 1-618): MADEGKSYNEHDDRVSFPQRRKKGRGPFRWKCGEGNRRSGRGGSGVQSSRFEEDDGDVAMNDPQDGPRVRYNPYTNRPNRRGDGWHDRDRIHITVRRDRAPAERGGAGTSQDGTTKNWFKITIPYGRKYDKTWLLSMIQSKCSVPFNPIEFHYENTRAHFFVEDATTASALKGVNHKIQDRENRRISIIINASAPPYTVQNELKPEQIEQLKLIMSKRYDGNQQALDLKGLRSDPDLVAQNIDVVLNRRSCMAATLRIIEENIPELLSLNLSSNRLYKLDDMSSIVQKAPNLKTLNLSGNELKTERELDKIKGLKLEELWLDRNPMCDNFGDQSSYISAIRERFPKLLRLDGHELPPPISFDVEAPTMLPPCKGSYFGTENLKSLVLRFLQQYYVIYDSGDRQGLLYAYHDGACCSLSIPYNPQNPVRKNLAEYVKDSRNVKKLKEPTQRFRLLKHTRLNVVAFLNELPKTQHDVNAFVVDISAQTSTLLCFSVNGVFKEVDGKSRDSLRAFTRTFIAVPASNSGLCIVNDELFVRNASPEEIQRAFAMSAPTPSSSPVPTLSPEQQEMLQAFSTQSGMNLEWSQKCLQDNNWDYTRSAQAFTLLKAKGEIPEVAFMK
# B1: SRSF1-m4: quadruple SRSF1 point mutant aa11-196, dominant negative, does not interact with TAP/NXF1 (protein)
# chain: AGNNDCRIYVGNLPPDIRTKDIEDVFYKYGAIRDIDLKNRRGGPPFAFVEFEDPRDAEDAVYGRDGYDYDGYRLRVEFPASGAGTGRGGGGGGGGGAPRGRYGPPSAASENRVVVSGLPPSGSWQDLKDHMREAGDVCYADVYRDGTGVVEFVRKEDMTYAVRKLDNTKFRSHEGETAYIRVKVDG
# modifications: left off: small tags and cut ends
# Key:
# G4C2×5 repeat RNA = assay: Protein:RNA UV crosslinking assay, sense probe; assay type: binding; conditions: purified recombinant hexa-histidine-tagged protein
# Method: (§1) Recombinant proteins expressed in 1.51 of E. coli BL21 (DE3)-RP (Novagen) cell cultures were purified by IMAC chromatography on TALON/Cobalt beads (Clontech) in 1M NaCl containing buffers to prevent the potential co-purification of E. coli RNA (Lysis buffer: 50 mM TRIS-HCl pH8.0, 1M NaCl, 0.5% Triton X-100; Wash buffer: 50 mM TRIS-HCl pH8.0, 1M NaCl, 0.5% Triton X-100, 5 mM imidazole). […] Binding reactions were resolved on SDS-PAGE prior to analysis by Coomassie staining and Phosphoimaging.
# NXF1 = biological target: T1, NXF1; assay: Anti-FLAG co-immunoprecipitation of endogenous NXF1 in N2A cells; assay type: binding; conditions: FLAG-tagged protein, 48 h
# Method: Cells were split into 1×10 cm plates/treatment (1.5×10^6 cells/plate) and transfected with 15 μg p3×FLAG, p3×FLAG/SRSF1 (11-196), p3×FLAG/SRSF1 (11-196)-m2 or p3×FLAG/SRSF1(11-196)-m4 using 3 μg PEI/1 μg DNA and one tenth medium volume OptiMEM.
# Proteins were extracted from Neuro-2a cells 48 hours after transfection. Cells were briefly washed in ice cold PBS, scraped into 500 μl ice cold lysis buffer, passed through a 21G gauge needle 10 times and left to lyse on ice for 10 minutes. Lysed cells were cleared by centrifugation at maximum speed at 4° C. for five minutes and protein extracts were quantified using Bradford Reagent. 2 mg of total protein in 1 ml lysis buffer was incubated with 30 μl anti-FLAG® M2 affinity resin slurry (Sigma A2220) (which had been blocked overnight with 1% BSA in IP lysis buffer) for 2 hours at 4° C. on a rotating wheel. […] 30 μg total protein and 15 μl captured protein complexes were resolved by SDS-PAGE, electroblotted onto nitrocellulose membrane and probed using FLAG, NXF1 clone 53H8 [1:2000] (Abcam ab50609) and […]-tubulin.
# C4G2×5 repeat RNA = assay: Protein:RNA UV crosslinking assay, antisense probe; assay type: binding; conditions: purified recombinant hexa-histidine-tagged protein
# Method: as §1
# G4C2×38 transcripts = assay: Cytoplasmic fractionation and qRT-PCR of G4C2×38 transcripts in N2A cells; assay type: cell-based, mouse
# Method: Neuro-2a cells were split into each well of 6 well plates (2×10^6 cells/well) and transfected for 72 hours with 1 μg pcDNA6.2-GW/EmGFP-Control miR RNAi, pcDNA6.2-GW/EmGFP-mouse SRSF1 miR1+2 RNAi, p3×FLAG/SRSF1 (11-196), or p3×FLAG/SRSF1 (11-196)-m4 and 1 μg pcDNA 3.1/RAN-G4C2×38-sense or RAN-C4G2×39-antisense using 3 μg PEI/1 μg DNA and one tenth medium volume OptiMEM. iNeurons were cultured in 6-well plates and transduced with 5MOI human LV-SRSF1-RNAi lentivirus for 5 days.
# Cytoplasmic fractionation was performed as follows. Cells were removed from the plate using DEPC PBS and pelleted by centrifugation at 800×g for 5 minutes. Cell pellets were quickly washed with hypotonic lysis buffer (10 mM HEPES pH 7.9, 1.5 mM MgCl2, 10 mM KCl, 0.5 mM DTT). Cell pellets were then lysed in hypotonic lysis buffer containing 0.16 U/μL Ribosafe RNase inhibitors (Bioline), 2 mM PMSF (Sigma) and […]™ Protease Inhibitor Cocktail tablets, EDTA free (Sigma) according to manufacturer's instructions. Cells were lysed gently using a cut P1000 tip ensuring no physical force was exerted on the cell pellet. For fly tissue, da-GAL4 was used to drive transgene expression in all tissues, and 10 third instar larvae were homogenised and lysed using the same buffer and a dounce homogenizer. The lysate then underwent differential centrifugation (1,500 g, 3 min, 4° C. then 3,500 g […], 8 min, 4° C. and then 17,000 g, 1 min, 4° C.) transferring the supernatant to a fresh tube after each centrifugation. The supernatant was then added to PureZOL (Biorad) to extract RNA. […]
# Following RNA quantification, 2 μg RNA was converted to cDNA using BioScript™ Reverse Transcriptase (Bioline). qRT-PCR primers were designed using Primer-BLAST (NCBI) and validated using a 1 in 4 serial template dilution series (standard curve with R^2>0.97). qRT-PCR reactions were performed in duplicate for 3 independent biological repeats using the Brilliant III Ultra-Fast SYBR® Green QPCR Master Mix (Agilent Technologies) on a MX3000P QPCR system (Statagene). qRT-PCR data was analysed using MxPro (Stratagene) and GraphPad Prism (Version 6). […]
molecule,measurement,setting,value
B1,direct interaction with sense G4C2×5 repeat RNA,G4C2×5 repeat RNA,retains the ability to directly interact
same,co-immunoprecipitation of endogenous NXF1,NXF1,severely impaired
same,direct interaction with antisense C4G2×5 repeat RNA,C4G2×5 repeat RNA,retains the ability to directly interact
same,cytoplasmic repeat transcript levels normalized to total levels,"G4C2×38 transcripts; G4C2×38, RNAi vs Ctrl-RNAi, SRSF1-m4 vs SRSF1",marked reduction
same,cytoplasmic levels of G4C2×38 transcripts,G4C2×38 transcripts; normalized to U1 snRNA,markedly reduced
same,total levels of G4C2×38 transcripts,G4C2×38 transcripts; normalized to U1 snRNA,not significantly altered
